Legend:
[1] = molecular target: T1, six-subunit PRC2 (EZH2-EED-SUZ12-RBAP48-AEBP2-JARID2) (UniProt Q15910-2;O75530;Q15022;Q09028;Q6ZN18-2;Q92833 …); test: UV crosslinking; very low crosslinking efficiency despite saturated binding; EMSA: 50 mM Tris-HCl pH 7.5 (25 C), 100 mM KCl (or LiCl), 2.5 mM MgCl2, 0.1 mM ZnCl2, 2 mM 2-mercaptoethanol, 0.05 mg/ml BSA, 0.05 mg/ml yeast tRNA, 5% glycerol, 30 C 30 min; details: protein: recombinant; tags: His (EZH2), Strep-GFP (AEBP2, JARID2); TEV treated; AEBP2 retains 7 extra N-terminal aa; copies: 1;1;1;1;1;1; label: 32P; G4
[2] = molecular target: six-subunit PRC2 AEBP2del261-389 (UniProt Q15910-2;O75530;Q15022;Q09028;Q6ZN18-2;Q92833 …, internal_change); test: EMSA; P = 0.05 vs WT; EMSA: 50 mM Tris-HCl pH 7.5 (25 C), 100 mM KCl (or LiCl), 2.5 mM MgCl2, 0.1 mM ZnCl2, 2 mM 2-mercaptoethanol, 0.05 mg/ml BSA, 0.05 mg/ml yeast tRNA, 5% glycerol, 30 C 30 min; details: protein: recombinant; copies: 1;1;1;1;1;1; label: 32P 5' (EMSA); no G4
[3] = molecular target: T1, six-subunit PRC2 …; test: EMSA; 100 mM KCl; EMSA: 50 mM Tris-HCl pH 7.5 (25 C), 100 mM KCl (or LiCl), 2.5 mM MgCl2, 0.1 mM ZnCl2, 2 mM 2-mercaptoethanol, 0.05 mg/ml BSA, 0.05 mg/ml yeast tRNA, 5% glycerol, 30 C 30 min; details: protein: recombinant, tags: His (EZH2), Strep-GFP (AEBP2, JARID2), TEV treated, AEBP2 retains 7 extra N-terminal aa, copies: 1;1;1;1;1;1, label: 32P 5' (EMSA)
[4] = molecular target: T1, six-subunit PRC2 …; test: as above; details: protein: recombinant, tags: His (EZH2), Strep-GFP (AEBP2, JARID2), TEV treated, AEBP2 retains 7 extra N-terminal aa, copies: 1;1;1;1;1;1, label: 32P 5' (EMSA); remark: listed apart in the source

B1: 2G4 (structured_RNA)
RNA: AAAAAAAAAAGGGAAGGGAAGGGAAGGGAACAACAACAACAACAAGGGAAGGGAAGGGAAGGGAA
binding result [1]: binds

AAAAAAAAAAGAGAGAGAUGAGUGUGAGUGUGAGUGUGAGUGAGAGAGAG (ssRNA) [TERRAmut]
Kd [2]: 112 ± 24 nM | Kd ([3]; no G4): 66 ± 15 nM

AAAAAAAAAAGUGUGUGUGUGUGUGUGUGUGUGUGUGUGUGUGUGUGUGU (structured_RNA) [pUG-fold]
binding signal ([4]; atypical G4 (pUG-fold: three G quartets and one U quartet)): ~2 fold weaker than TERRA/Poly(U)/Poly(C)

UUUUUUUUUUCUCUUUCUCUCCUUCUCUUCCUCUCUCUCCUCUUUCUCUC (ssRNA) [P10]
binding signal ([4]; single strand): ~4 fold weaker than TERRA/Poly(U)/Poly(C)

AAAAAAAAAAGAGAGAGAUUAGGGUUAGGGUUAGGGUUAGGGAGAGAGAG (structured_RNA) [TERRA]
Kd ([3]; single intramolecular G4 in K+): 18 ± 9 nM

UUUUUUUUUUUUUUUUUUUUUUUUUUUUUUUUUUUUUUUUUUUUUUUUUU (ssRNA) [Poly(U)]
Kd ([3]; single strand): 28 ± 4 nM

From article PMC13316113, “RNA-induced PRC2 inhibition depends on the sequence of bound RNA”
